Assay results: article PMC11543921 (iScience, 2024)

Molecular target: the molecule itself
Assay: MALDI-TOF MS

B1: human recombinant glutamate-oxaloacetate transaminase (enzyme, UniProt P17174 1-413, looked up)
chain: MAPPSVFAEVPQAQPVLVFKLTADFREDPDPRKVNLGVGAYRTDDCHPWVLPVVKKVEQKIANDNSLNHEYLPILGLAEFRSCASRLALGDDSPALKEKRVGGVQSLGGTGALRIGADFLARWYNGTNNKNTPVYVSSPTWENHNAVFSAAGFKDIRSYRYWDAEKRGLDLQGFLNDLENAPEFSIVVLHACAHNPTGIDPTPEQWKQIASVMKHRFLFPFFDSAYQGFASGNLERDAWAIRYFVSEGFEFFCAQSFSKNFGLYNERVGNLTVVGKEPESILQVLSQMEKIVRITWSNPPAQGARIVASTLSNPELFEEWTGNVKTMADRILTMRSELRARLEALKTPGTWNHITDQIGMFSFTGLNPKQVEYLVNEKHIYLLPSGRINVSGLTTKNLDYVATSIHEAVTKIQ
stoichiometry N: 2
